Several values for one entry are separate records, joined by “and”; a condition that tells them apart may be missing. Equal entries are not always repeated.
How the values were obtained:
[1] = biological target: T1, Human CLEC12A expressed on cells (Ba/F3-hCLEC12A, PL21, HL60) (human, UniProt Q5QGZ9 1-265); test: cell-based or functional assay
T1 sequence: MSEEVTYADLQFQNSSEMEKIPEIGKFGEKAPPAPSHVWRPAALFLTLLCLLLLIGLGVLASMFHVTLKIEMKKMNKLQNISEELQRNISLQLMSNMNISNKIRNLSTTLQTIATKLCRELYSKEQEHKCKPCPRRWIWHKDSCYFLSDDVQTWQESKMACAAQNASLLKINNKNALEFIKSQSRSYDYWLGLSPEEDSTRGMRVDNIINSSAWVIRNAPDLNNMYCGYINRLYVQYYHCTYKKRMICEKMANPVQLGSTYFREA

[2] = biological target: T2, De-sialylated human CLEC12A (human, UniProt Q5QGZ9 65-265, treated with neuraminidase (terminal sialic acids removed)); test: SPR, two-state fit
T2 construct: Same recombinant antigen as m2 after neuraminidase; also called De-sialylated CLEC12A
T2 sequence: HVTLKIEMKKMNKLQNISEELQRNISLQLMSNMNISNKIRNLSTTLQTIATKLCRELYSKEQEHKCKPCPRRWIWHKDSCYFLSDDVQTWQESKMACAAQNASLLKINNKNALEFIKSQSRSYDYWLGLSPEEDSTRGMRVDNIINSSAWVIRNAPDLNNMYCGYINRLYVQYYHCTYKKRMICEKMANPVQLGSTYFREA
Experimental: (§1) Briefly, human Fc specific antibodies were covalently immobilized at a density ˜8000-10000 resonance units (RU) on carboxy methyl dextran matrix of a CM5 biosensor chip via amine-coupling chemistry to create an anti-hFc IgG chip. […] Association was monitored for 300 seconds and dissociation was monitored for 600 seconds. Surfaces were regenerated between cycles with three pulses of 10 mM glycine-HCl, pH 1.7 injected for 20 seconds at 100 μl/min. HBS-EP+ (1×) with 0.1 mg/ml BSA was used as running buffer throughout the experiment. Experiments were performed at physiological temperature of 37° C. To obtain kinetic rate constants and overall binding affinity, double-referenced data were fit to a two-state kinetic model using Biacore 8K Insight Evaluation software (Cytiva).

[3] = biological target: T3, De-glycosylated human CLEC12A (human, UniProt Q5QGZ9 65-265, treated with PNGaseF (N-linked glycans removed)); test: SPR, two-state fit
T3 construct: Same recombinant antigen as m2 after PNGaseF; also called De-glycosylated CLEC12A
T3 sequence: T2 sequence
Experimental: as §1

[4] = biological target: T4, Cynomolgus CD16 (FcγRIII) (cynomolgus monkey, UniProt Q8SPW2 17-208, biotinylated); test: SPR 25C, average
T4 construct: Bought recombinant receptor; also called cFcγRIII; Cyno FcγRIII
T4 sequence (Q8SPW2 17-208 limits assumed): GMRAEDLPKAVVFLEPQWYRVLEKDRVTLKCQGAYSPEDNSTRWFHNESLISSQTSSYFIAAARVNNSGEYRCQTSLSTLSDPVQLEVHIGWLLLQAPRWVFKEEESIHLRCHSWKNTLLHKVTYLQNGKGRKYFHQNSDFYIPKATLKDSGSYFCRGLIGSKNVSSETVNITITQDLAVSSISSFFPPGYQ

[5] = biological target: T4, Cynomolgus CD16 (FcγRIII); test: SPR 25C, biotinylated cyno CD16 captured
[6] = biological target: T1, Human CLEC12A expressed on cells …; test: cell-based or functional assay; remark: listed apart in the source
[7] = biological target: T1, Human CLEC12A expressed on cells …; test: cell-based or functional assay; remark: listed apart in the source
[8] = biological target: T5, Human CLEC12A-His (recombinant, K244 WT) (human, UniProt Q5QGZ9 65-265); test: SPR, two-state fit (ka1); after 4 wks 40C in HST pH 6.0
T5 construct: Made in house (Dragonfly Tx); also called hCLEC12A; hCLEC12A-His; not shown: His tag
T5 sequence: T2 sequence

- EC50, rested NK cells lysis of HL60 cells (mean of four donors) [1]: 0.09 nM
- Kd [2]: 0.35 nM
- Kd [3]: 0.09 nM
- Kd [4]: 349 nM
- Kd [5]: 351 nM and 347 nM and 348 nM
- EC50, lysis of PL21 cells by NK cells, with sMIC-A-Fc [7]: 0.26 nM
- EC50, lysis of PL21 cells by NK cells, without sMIC-A-Fc [7]: 0.32 nM
- kon [8]: 7.91e+06 M⁻¹ s⁻¹
B1: AB0089 TriNKET (bispecific antibody, human IgG1, kappa)
chain: QLQLQESGPGLVKPSETLSLTCTVSGFSLTNYGLHWIRQPPGKCLEWIGVIWVGGATDYNPSLKSRVTISVDTSKNQFSLKLSSVQAADTAVYYCAKGDYGDTLDYWGQGTLVTVSSGGGGSGGGGSGGGGSGGGGSDIQMTQSPSSLSASVGDRVTITCHASQNINFWLSWYQQKPGKAPKLLIYEASNLHTGVPSRFSGSGSGTDFTLTISSLQPEDFATYYCQQSHSYPLTFGCGTKLEIKGSDKTHTCPPCPAPELLGGPSVFLFPPKPKDTLMISRTPEVTCVVVDVSHEDPEVKFNWYVDGVEVHNAKTKPREEQYNSTYRVVSVLTVLHQDWLNGKEYKCKVSNKALPAPIEKTISKAKGQPREPRVYTLPPCRDELTKNQVSLTCLVKGFYPSDIAVEWESNGQPENNYKTTPPVLVSDGSFTLYSKLTVDKSRWQQGNVFSCSVMHEALHNHYTQKSLSLSPG
heavy: EVQLVESGGGLVKPGGSLRLSCAASGFTFSSYSMNWVRQAPGKGLEWVSSISSSSSYIYYADSVKGRFTISRDNAKNSLYLQMNSLRAEDTAVYYCARGAPIGAAAGWFDPWGQGTLVTVSSASTKGPSVFPLAPSSKSTSGGTAALGCLVKDYFPEPVTVSWNSGALTSGVHTFPAVLQSSGLYSLSSVVTVPSSSLGTQTYICNVNHKPSNTKVDKKVEPKSCDKTHTCPPCPAPELLGGPSVFLFPPKPKDTLMISRTPEVTCVVVDVSHEDPEVKFNWYVDGVEVHNAKTKPREEQYNSTYRVVSVLTVLHQDWLNGKEYKCKVSNKALPAPIEKTISKAKGQPREPQVCTLPPSRDELTENQVSLTCLVKGFYPSDIAVEWESNGQPENNYKTTPPVLDSDGSFFLYSWLTVDKSRWQQGNVFSCSVMHEALHNHYTQKSLSLSPG
light: DIQMTQSPSSVSASVGDRVTITCRASQGISSWLAWYQQKPGKAPKLLIYAASSLQSGVPSRFSGSGSGTDFTLTISSLQPEDFATYYCQQGVSFPRTFGGGTKVEIKRTVAAPSVFIFPPSDEQLKSGTASVVCLLNNFYPREAKVQWKVDNALQSGNSQESVTEQDSKDSTYSLSSTLTLSKADYEKHKVYACEVTHQGLSSPVTKSFNRGEC
notes: F3' format heterodimer of three chains; human IgG1 Fc with EW-RVT and Y349C/S354C mutations; also called AB0089 Lot AB0089-002; CLEC12A TriNKET AB0089
- EC50, KHYG1-CD16aV cytotoxicity assay, HL-60 cells; control (AB0089-002) [6]: 0.04 nM
- EC50, KHYG1-CD16aV cytotoxicity assay, HL-60 cells; low pH hold (AB0089-004) [6]: 30 pM
